Results published in article PMC9170159 (2022).

Target: SARS-CoV-2 spike receptor-binding domain (RBD), Wuhan-Hu-1, His-tagged (SARS-CoV-2 (Wuhan-Hu-1), UniProt P0DTC2 319-541)
Test: BLI

B1: NCI-CoV-1B5 VHH-hFc fusion protein (Fc fusion)
chain: DVQLVESGGGSVQAGGSLRLSCTGSRYTYSTYCMGWFRQAPGKEEEAVAIINSGGGEPYYGDSVKGRFTISQDRAKNTVYLQMDGLQPDDTAIYYCVAADSHNSRCYLGRSYVNYWGQGTQVTVSS
Kd: 100 pM
